From publication PMC11830286, “Protein identification using Cryo-EM and artificial intelligence guides improved sample purification” (Journal of Structural Biology: X, 2025)

Biological target: the molecule itself
Assay: cryo-EM structure; single particle analysis of the SEC peak of the nanoparticle preparation purified without glycine or arginine; octahedral symmetry enforced, 2.51 Å; about 0.3 mg/mL, buffer with DDM

B1: dihydrolipoamide succinyltransferase (DLST) (enzyme, E. coli BL21 (DE3), UniProt P0AFG6 1-405, looked up)
chain: MSSVDILVPDLPESVADATVATWHKKPGDAVVRDEVLVEIETDKVVLEVPASADGILDAVLEDEGTTVTSRQILGRLREGNSAGKETSAKSEEKASTPAQRQQASLEEQNNDALSPAIRRLLAEHNLDASAIKGTGVGGRLTREDVEKHLAKAPAKESAPAAAAPAAQPALAARSEKRVPMTRLRKRVAERLLEAKNSTAMLTTFNEVNMKPIMDLRKQYGEAFEKRHGIRLGFMSFYVKAVVEALKRYPEVNASIDGDDVVYHNYFDVSMAVSTPRGLVTPVLRDVDTLGMADIEKKIKELAVKGRDGKLTVEDLTGGNFTITNGGVFGSLMSTPIINPPQSAILGMHAIKDRPMAVNGQVEILPMMYLALSYDHRLIDGRESVGFLVTIKELLEDPTRLLLDV
notes: dihydrolipoamide succinyltransferase (DLST) of E. coli BL21(DE3), UniProt A0A140NDX4; host protein, no construct; the first 170 residues were unresolved in the cryo-EM map and only the catalytic domain was modelled; also called dihydrolipoyllysine-residue succinyltransferase; contaminant nanoparticle; source: endogenous, E. coli BL21(DE3) expression host; co-purified as a contaminant with …
- stoichiometry N: 24
